Laboratory results as given in patent US20230357340A1.

Key:
[1] = molecular target: recombinant mouse IL-18 protein (mouse) (UniProt P70380)
[2] = molecular target: recombinant human IL-18 (human) (UniProt Q14116); assay: cell-based or functional assay
recombinant human IL-18 (human), sequence (Q14116 37-193 limits assumed): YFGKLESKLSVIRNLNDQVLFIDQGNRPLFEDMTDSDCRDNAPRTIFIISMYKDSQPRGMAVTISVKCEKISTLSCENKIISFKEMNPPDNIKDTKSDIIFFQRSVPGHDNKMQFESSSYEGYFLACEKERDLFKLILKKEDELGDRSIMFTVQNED

recombinant mouse IL-18 protein (mouse), sequence (P70380 36-192 limits assumed): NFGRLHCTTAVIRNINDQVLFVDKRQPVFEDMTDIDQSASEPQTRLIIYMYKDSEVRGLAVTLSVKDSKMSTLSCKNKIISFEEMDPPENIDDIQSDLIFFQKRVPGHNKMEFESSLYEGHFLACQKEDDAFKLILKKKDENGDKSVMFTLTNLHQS

| Substance | IC50 (read off the curve); mouse IL-18-induced IFN-γ secretion by mouse CD4+ T cells [1] | IC50 of inhibition of IL-18-induced IFN-γ production in KG-1 cells [2] |
| --- | --- | --- |
| recombinant human interleukin-18-binding protein with C-terminal His-tag (hIL18BP-his8) (from UniProt O95998 31-194) | 0.3 nM | 0.024 nM |
| hIL18BP-His(SinoBio.) (from UniProt O95998) | 1 nM | – |
